The results in this text go back to patent US10221404B2, “Method for modifying characteristics of a lipase” (Novozymes A/S, priority 2014, dated 2019).

The nature of data set [1]: Hydrolytic activity, kinetic assay with p-nitrophenyl acyl esters. As to conditions: substrates C3, C6, C10, C12, C16 at 1 mM; 50 mM Tris pH 7.7, 0.4% TritonX-100; 405 nm for 5 minutes. It is filed as biochemical. The protocol: The hydrolytic activity of RmL with and without propeptide on various fatty acids was investigated in a kinetic assay using p-nitrophenyl acyl esters as substrate. The 100 mM stock solutions in DMSO of the substrates: p-Nitrophenyl butyrate (C3), p-Nitrophenyl caproate (C6), p-Nitrophenyl caprate (C10), p-Nitrophenyl laurate (C12) and p-Nitrophenyl palmitate (C16) (all from Sigma-Aldrich Danmark NS, Kirkebjerg Allé 84, 2605 Brondby; Cat. no.: C3:N-9876, C6: N-0502, C10: N-0252, C12: N-2002, C16: N-2752) were diluted to a final concentration of 1 mM into assay buffer (50 mM Tris; pH 7.7; 0.4% TritonX-100).
RmL with and without propeptide and appropriate controls: Buffer (negative), Lipex™ (positive) RmL with and without propeptide in 50 mM Hepes pH8.0; 10 ppm TritonX-100; 20 mM CaCl2 were added to the substrate solution in the following final concentrations: 0.01 mg/mL; 5×10^−3 mg/mL; […]; and 1.25×10^−4 mg/mL in 96-well NUNC plates (Cat. No: 260836, Kamstrupvej 90, DK-4000, Roskilde). Release of p-nitrophenol by hydrolysis of p-nitrophenyl acyl was monitored at 405 nm for 5 minutes in 10 second intervals on a Spectra max 190 (Molecular Devices GmbH, Bismarckring 39, 88400 Biberach an der Riss, GERMANY).

A short description of data set [2]: AMSA wash performance after activation with detergent and/or protease. As to conditions: for No (RP): 60 minutes in 10 mM succinic acid pH6.5. More on the design: key to No (RP) / Det (RP) / Sav (RP) / Det + Sav (RP): wash performance relative to reference lipase (Lipolase), RP ratio. The protocol:
(§1) Washing experiments were performed using Automatic Mechanical Stress Assay (AMSA) in order to assess the wash performance in laundry. The AMSA plate has a number of slots for test solutions and a lid firmly squeezing the laundry sample, the textile to be washed against all the slot openings. During the washing time, the plate, test solutions, textile and lid were vigorously shaken to bring the test solution in contact with the textile and apply mechanical stress in a regular, periodic oscillating manner. For further description see WO02/42740 especially the paragraph “Special method embodiments” at page 23-24.
(§2) The laundry experiments were conducted in Model Detergent B, pH8. The experimental conditions are specified below:
(§3) Final adjustments to the specified pH were done with NaOH or citric acid. Water hardness was adjusted to 15° dH by addition of CaCl2 and MgCl2 (Ca^2+:Mg^2+=4:1) to the test system.
(§4) After washing the textiles were flushed in tap water and excess water was removed from the textiles using filter paper and immediately thereafter the textiles were dried at 85° C. for 5 min.
(§5) The wash performance was measured as the color change of the washed soiled textile. The soil was cream mixed with turmeric. Turmeric contains the colorant curcumin, which function as a pH indicator by having pH dependent color change. Lipase activity leads to release of free fatty acids from the cream acylglycerides and this leads to pH decrease and thereby color change of the curcumin pH indicator. Lipase wash performance can therefore be expressed as the extent of color change of light reflected-emitted from the washed soiled textile when illuminated with white light.
(§6) Color measurements were made with a professional flatbed scanner (EPSON EXPRESSION 10000XL, Atea NS, Lautrupvang 6, 2750 Ballerup, Denmark), which was used to capture an image of the washed soiled textile. To extract a value for the light intensity from the scanned images, 24-bit pixel values from the image were converted into values for red, green and blue (RGB).
(§7) Color change due to lipase activity was measured as the increase in the reflection-emitting of green light (G) relative to the sum of reflected-emitted blue (B) and red (R) light. The wash performance (RP(Wash)) of a lipase relative to a reference lipase (Lipolase™) was calculated as: RP(Wash)=(G/(B+R)(tested lipase)−G/(B+R)(no enzyme))/(G/(B+R)(lipase ref.)−G/(B+R)(no enzyme)).
Wild type RmL without or with propeptide respectively were submitted to no, detergent, protease or detergent+protease treatment prior to performance test in AMSA to test the activation level of the lipase after the treatment. […] […] Wash performance of all samples were determined by Automatic Mechanical Stress Assay (AMSA) as described above.

The nature of data set [3]: AMSA wash performance, specificity of inhibitory effect of propeptide. The protocol: as §1, §2, §3, §4, §5, §6, §7
The inhibitory specificity of the isolated propeptide was determined by mixing the isolated propeptide in a 320:1 molar ratio with 5 different lipases including the active RmL. All enzymes were diluted in 10 mM succinic acid buffer, pH6.5, to a concentration of 1.5 uM and were mixed (1:1) with purified propeptide dilutions. After 3 hours incubation at 4° C. the lipase performance of the incubated lipase-inhibitor samples were determined by Automatic Mechanical Stress Assay (AMSA) as described above. The relative wash performance “RP(wash)” is for each lipase normalized to the wash performance without inhibitor.

Data set [4] can be described thus: AMSA wash performance, propeptide dose response. As to conditions: Model B/50 mM glycine pH 8; normalized to wash performance without inhibitor; 3 hours incubation at 4° C. The procedure: as §1, §2, §3, §4, §5
Color measurements were made with a professional flatbed scanner (EPSON EXPRESSION 10000XL, Atea NS, Lautrupvang 6, 2750 Ballerup, Denmark), which was used to capture an image of the washed soiled textile. […]
as §7
The inhibitory effect of the isolated propeptide (PP) was determined by mixing isolated propeptide in molar excess with separately purified active RmL core-enzyme at increasing molar ratios of propeptide to lipase. […] After 3 hours incubation at 4° C. lipase wash performance of the incubated lipase-inhibitor samples were determined by Automatic Mechanical Stress Assay (AMSA) as described above. […]

The nature of data set [5]: Thermostability by Differential Scanning Calorimetry (DSC). Format: physicochemical. As to conditions: 50 mM HEPES, 100 mM NaCl, 1 mM CaCl2, pH8.0; heating rate 200 K/hr. The procedure: The thermostability of Rhizomucor miehei lipase, RmL (SEQ ID NO: 3) with or without non covalently bound native propeptide (SEQ ID NO: 4) was determined by Differential Scanning calorimetry (DSC) using a VP-Capillary Differential Scanning calorimeter (MicroCal Inc., Piscataway, N.J., USA).
The thermal denaturation temperature, Td (° C.), was taken as the top of denaturation peak (major endothermic peak) in thermograms (Cp vs. T) obtained after heating enzyme solutions in buffer (50 mM HEPES; 100 mM NaCl; 1 mM CaCl2; pH8.0) at a constant programmed heating rate of 200 K/hr. RmL without propeptide added was analyzed at a concentration of 0.42 mg/mL, where as in presence of propeptide the concentration of RmL was 0.34 mg/mL as a consequence of mixing of 440 uL enzyme solution (at 0.42 mg/mL) and 100 uL peptid solution at a concentration of 480 uM (concentration determined by amino acid analysis)
Sample- and reference-solutions (approx. 0.2 mL) were loaded into the calorimeter (reference: buffer without enzyme) from storage conditions for 3 hours (mixing) at 10° C. and thermally pre-equilibrated for approx. 20 minutes at 20° C. prior to DSC scan from 20° C. to 100° C. Denaturation temperatures were determined at an accuracy of approximately +/−1° C.
(In general: In DSC, transitions show as peaks or steps in heat flow.)

Setting [6] is: 60 minutes in 1.35% (v/v) Savinase in 10 mM succinic acid pH6.5.
The mark [7] stands for this setting: 60 minutes in 1.35% (v/v) Savinase in 77% (w/w) Detergent B.
[8] abbreviates: 60 minutes in 77% (w/w) Model detergent B.

B1: RmL with propeptide: Rhizomucor miehei lipase with its native N-terminal propeptide non-covalently bound (inactive RmL) (protein, UniProt P19515 25-363, looked up)
pro-form: VPIKRQSNSTVDSLPPLIPSRTSAPSSSPSTTDPEAPAMSRNGPLPSDVETKYGMALNATSYPDSVVQAMSIDGGIRAATSQEINELTYYTTLSANSYCRTVIPGATWDCIHCDATEDLKIIKTWSTLIYDTNAMVARGDSEKTIYIVFRGSSSIRNWIADLTFVPVSYPPVSGTKVHKGFLDSYGEVQNELVATVLDQFKQYPSYKVAVTGHSLGGATALLCALDLYQREEGLSSSNLFLYTQGQPRVGDPAFANYVVSTGIPYRRTVNERDIVPHLPPAAFGFLHAGEEYWITDNSPETVQVCTSDLETSDCSNSIVPFTSVLDHLSYFGINTGLCT
modifications: pro-form
B1: in data set [1], the “hydrolytic activity on p-nitrophenyl acyl esters” value is “no activity”. The “Sav (RP)” value in data set [2] (10 minutes in 1.35% (v/v) Savinase in 10 mM succinic acid pH6.5) is reported as 0.27; in data set [2] (setting [6]), 0.39. The “Det + Sav (RP)” value in data set [2] (10 minutes in 1.35% (v/v) Savinase in 77% (w/w) Detergent B) is reported as 0.88; in data set [2] (setting [7]), 0.85. Moreover, the “Det (RP)” value in data set [2] (10 minutes in 77% (w/w) Model detergent B) came out at 0.60; in data set [2] (setting [8]) it was 0.69. Moreover, the “No (RP)” value in data set [2] was 0.18. In addition, the “activation level of the lipase” value in data set [2] (Savinase treatment in detergent, after 10 minutes) is “full activation”.

B2: RmL: Rhizomucor miehei lipase mature protein (SEQ ID NO: 3), without propeptide (protein, listed as Rhizomucor miehei)
chain: SIDGGIRAATSQEINELTYYTTLSANSYCRTVIPGATWDCIHCDATEDLKIIKTWSTLIYDTNAMVARGDSEKTIYIVFRGSSSIRNWIADLTFVPVSYPPVSGTKVHKGFLDSYGEVQNELVATVLDQFKQYPSYKVAVTGHSLGGATALLCALDLYQREEGLSSSNLFLYTQGQPRVGDPAFANYVVSTGIPYRRTVNERDIVPHLPPAAFGFLHAGEEYWITDNSPETVQVCTSDLETSDCSNSIVPFTSVLDHLSYFGINTGLCT
B2: the “hydrolytic activity on p-nitrophenyl acyl esters” value in data set [1] is listed as “activity in all conditions tested”. Besides, in data set [2], the “No (RP)” value came to 1.00. Moreover, the “Sav (RP)” value in data set [2] (setting [6]) is reported as 0.99. The “Det + Sav (RP)” value in data set [2] (setting [7]) worked out at 0.84. For the same molecule, in data set [2] (setting [8]), the “Det (RP)” value turned out to be 0.89. For the same molecule, the “With inhibitor RP (wash)” value in data set [3] (propeptide SEQ ID No: 4 in 320:1 molar ratio, 3 hours at 4° C., normalized to wash performance without inhibitor) is listed as 0.02. In data set [3] (without propeptide SEQ ID No: 4, normalized per lipase), the “No inhibitor RP (wash)” value was determined as 1.00. Also, in data set [4], the “RP (wash) Rep. 1” value is listed as 1.00, the “RP (wash) Rep. 2” value is listed as 1.00, the “RP (wash) Rep. 3” value stood at 1.00 and the “RP (wash) Rep. 4” value is 1.00. In addition, the “Thermostability Td at pH 8.0” value in data set [5] is 61 °C.
